# Reference: patent US12123876B2, “Antibody binding to HEG1 and use of the antibody for detection and treatment of mesothelioma” (Kanagawa Prefectural Hospital Organization, priority 2016, dated 2024)
# B1: HEG1 full length: full length human HEG1 protein, SEQ ID NO: 35, expressed in mesothelioma cell line (protein, listed as Homo sapiens)
# chain: MASPRASRWPPPLLLLLLPLLLLPPAAPGTRDPPPSPARRALSLAPLAGAGLELQLERRPEREPPPTPPRERRGPATPGPSYRAPEPGAATQRGPSGRAPRGGSADAAWKHWPESNTEAHVENITFYQNQEDFSTVSSKEGVMVQTSGKSHAASDAPENLTLLAETADARGRSGSSSRTNFTILPVGYSLEIATALTSQSGNLASESLHLPSSSSEFDERIAAFQTKSGTASEMGTERAMGLSEEWTVHSQEATTSAWSPSFLPALEMGELTTPSRKRNSSGPDLSWLHFYRTAASSPLLDLSSSSESTEKLNNSTGLQSSSVSQTKTMHVATVFTDGGPRTLRSLTVSLGPVSKTEGFPKDSRIATTSSSVLLSPSAVESRRNSRVTGNPGDEEFIEPSTENEFGLTSLRWQNDSPTFGEHQLASSSEVQNGSPMSQTETVSRSVAPMRGGEITAHWLLTNSTTSADVTGSSASYPEGVNASVLTQFSDSTVQSGGSHTALGDRSYSESSSTSSSESLNSSAPRGERSIAGISYGQVRGTAIEQRTSSDHTDHTYLSSTFTKGERALLSITDNSSSSDIVESSTSYIKISNSSHSEYSSFFHAQTERSNISSYDGEYAQPSTESPVLHTSNLPSYTPTINMPNTSVVLDTDAEFVSDSSSSSSSSSSSSSSSSSSSSGPPLPLPSVSQSHHLFSSILPSTRASVHLLKSTSDASTPWSSSPSPLPVSLTTSTSAPLSVSQTTLPQSSSTPVLPRARETPVTSFQTSTMTSFMTMLHSSQTADLKSQSTPHQEKVITESKSPSLVSLPTESTKAVTTNSPLPPSLTESSTEQTLPATSTNLAQMSPTFTTTILKTSQPLMTTPGTLSSTASLVTGPIAVQTTAGKQLSLTHPEILVPQISTEGGISTERNRVIVDATSGLIPLTSVPTSAKEMTTKLGVTAEYSPASRSLGTSPSPQTTVVSTAEDLAPKSATFAVQSSTQSPTTLSSSASVNSCAVNPCLHNGECVADNTSRGYHCRCPPSWQGDDCSVDVNECLSNPCPSTAMCNNTQGSFICKCPVGYQLEKGICNLVRTFVTEFKLKRTFLNTTVEKHSDLQEVENEITKTLNMCFSALPSYIRSTVHASRESNAVVISLQTTFSLASNVTLFDLADRMQKCVNSCKSSAEVCQLLGSQRRIFRAGSLCKRKSPECDKDTSICTDLDGVALCQCKSGYFQFNKMDHSCRACEDGYRLENETCMSCPFGLGGLNCGNPYQLITVVIAAAGGGLLLILGIALIVTCCRKNKNDISKLIFKSGDFQMSPYAEYPKNPRSQEWGREAIEMHENGSTKNLLQMTDVYYSPTSVRNPELERNGLYPAYTGLPGSRHSCIFPGQYNPSFISDESRRRDYF
# B2: 7.6: HEG1 exon 7 fragment from amino acid No. 783 bonded to SLURPgpi; SEQ ID NO: 66 in FIG. 13 (protein)
# chain: DLKSQSTPHQEKVITESKSPSLVSLPTESTKAVTTNSPLPPSLTESSTEQTLPATSTNLAQMSPTFTTTILKTSQPLMTTPGTLSSTASLVTGPIAVQTTAGKQLSLTHPEILVPQISTEGGISTERNRVIVDATSGLIPLTSVPTSAKEMTTKLGVTAEYSPASRSLGTSPSPQTTVVSTAEDLAPKSATFAVQSSTQSPTTLSSSASGSLKCYTCKEPMTSASCRTITRCKPEDTACMTTLVTVEAEYPFNQSPVVTRSCSSSCVATDPDSIGAAHLIFCCFRDLCNSELSRDGAPSLGSPGGLLLALALFLLLGVLL
# B3: HEG1 2 kb: HEG1 fragment, position 677 leucine to position 1387 phenylalanine of SEQ ID NO: 35 (protein, listed as Homo sapiens)
# chain: SSGPPLPLPSVSQSHHLFSSILPSTRASVHLLKSTSDASTPWSSSPSPLPVSLTTSTSAPLSVSQTTLPQSSSTPVLPRARETPVTSFQTSTMTSFMTMLHSSQTADLKSQSTPHQEKVITESKSPSLVSLPTESTKAVTTNSPLPPSLTESSTEQTLPATSTNLAQMSPTFTTTILKTSQPLMTTPGTLSSTASLVTGPIAVQTTAGKQLSLTHPEILVPQISTEGGISTERNRVIVDATSGLIPLTSVPTSAKEMTTKLGVTAEYSPASRSLGTSPSPQTTVVSTAEDLAPKSATFAVQSSTQSPTTLSSSASVNSCAVNPCLHNGECVADNTSRGYHCRCPPSWQGDDCSVDVNECLSNPCPSTAMCNNTQGSFICKCPVGYQLEKGICNLVRTFVTEFKLKRTFLNTTVEKHSDLQEVENEITKTLNMCFSALPSYIRSTVHASRESNAVVISLQTTFSLASNVTLFDLADRMQKCVNSCKSSAEVCQLLGSQRRIFRAGSLCKRKSPECDKDTSICTDLDGVALCQCKSGYFQFNKMDHSCRACEDGYRLENETCMSCPFGLGGLNCGNPYQLITVVIAAAGGGLLLILGIALIVTCCRKNKNDISKLIFKSGDFQMSPYAEYPKNPRSQEWGREAIEMHENGSTKNLLQMTDVYYSPTSVRNPELERNGLYPAYTGLPGSRHSCIFPGQYNPSFISDESRRRDYF
# B4: HEG1 3 kb: HEG1 fragment, position 285 leucine to position 1387 phenylalanine of SEQ ID NO: 35 (protein, listed as Homo sapiens)
# chain: LSWLHFYRTAASSPLLDLSSSSESTEKLNNSTGLQSSSVSQTKTMHVATVFTDGGPRTLRSLTVSLGPVSKTEGFPKDSRIATTSSSVLLSPSAVESRRNSRVTGNPGDEEFIEPSTENEFGLTSLRWQNDSPTFGEHQLASSSEVQNGSPMSQTETVSRSVAPMRGGEITAHWLLTNSTTSADVTGSSASYPEGVNASVLTQFSDSTVQSGGSHTALGDRSYSESSSTSSSESLNSSAPRGERSIAGISYGQVRGTAIEQRTSSDHTDHTYLSSTFTKGERALLSITDNSSSSDIVESSTSYIKISNSSHSEYSSFFHAQTERSNISSYDGEYAQPSTESPVLHTSNLPSYTPTINMPNTSVVLDTDAEFVSDSSSSSSSSSSSSSSSSSSSSGPPLPLPSVSQSHHLFSSILPSTRASVHLLKSTSDASTPWSSSPSPLPVSLTTSTSAPLSVSQTTLPQSSSTPVLPRARETPVTSFQTSTMTSFMTMLHSSQTADLKSQSTPHQEKVITESKSPSLVSLPTESTKAVTTNSPLPPSLTESSTEQTLPATSTNLAQMSPTFTTTILKTSQPLMTTPGTLSSTASLVTGPIAVQTTAGKQLSLTHPEILVPQISTEGGISTERNRVIVDATSGLIPLTSVPTSAKEMTTKLGVTAEYSPASRSLGTSPSPQTTVVSTAEDLAPKSATFAVQSSTQSPTTLSSSASVNSCAVNPCLHNGECVADNTSRGYHCRCPPSWQGDDCSVDVNECLSNPCPSTAMCNNTQGSFICKCPVGYQLEKGICNLVRTFVTEFKLKRTFLNTTVEKHSDLQEVENEITKTLNMCFSALPSYIRSTVHASRESNAVVISLQTTFSLASNVTLFDLADRMQKCVNSCKSSAEVCQLLGSQRRIFRAGSLCKRKSPECDKDTSICTDLDGVALCQCKSGYFQFNKMDHSCRACEDGYRLENETCMSCPFGLGGLNCGNPYQLITVVIAAAGGGLLLILGIALIVTCCRKNKNDISKLIFKSGDFQMSPYAEYPKNPRSQEWGREAIEMHENGSTKNLLQMTDVYYSPTSVRNPELERNGLYPAYTGLPGSRHSCIFPGQYNPSFISDESRRRDYF
# B5: HEG1 1 kb: HEG1 fragment, position 992 valine to position 1387 phenylalanine of SEQ ID NO: 35 (protein, listed as Homo sapiens)
# chain: VNSCAVNPCLHNGECVADNTSRGYHCRCPPSWQGDDCSVDVNECLSNPCPSTAMCNNTQGSFICKCPVGYQLEKGICNLVRTFVTEFKLKRTFLNTTVEKHSDLQEVENEITKTLNMCFSALPSYIRSTVHASRESNAVVISLQTTFSLASNVTLFDLADRMQKCVNSCKSSAEVCQLLGSQRRIFRAGSLCKRKSPECDKDTSICTDLDGVALCQCKSGYFQFNKMDHSCRACEDGYRLENETCMSCPFGLGGLNCGNPYQLITVVIAAAGGGLLLILGIALIVTCCRKNKNDISKLIFKSGDFQMSPYAEYPKNPRSQEWGREAIEMHENGSTKNLLQMTDVYYSPTSVRNPELERNGLYPAYTGLPGSRHSCIFPGQYNPSFISDESRRRDYF
# Tested on: SKM9-2 antibody
# Assay: Western blot reactivity of human HEG1 fragments expressed in ACC-MESO-1 with SKM9-2 antibody
# Assay type: binding, mouse
# Conditions: Western blot of cell lysate
# Experimental: In this Example, the mesothelioma cell line ACC-MESO-1 was allowed to express a human HEG1 fragment with the endogenous HEG1 of ACC-MESO-1 knocked down, and the reactivity with the SKM9-2 antibody was examined. Subsequently, the reactivity with the antibody was tested for the epitope region through alanine scanning, and key amino acids for binding to the antibody were determined.
# Gene transfer was performed with HEG1 siRNA (H9106) (SEQ ID NOs: 40, 41) and human HEG1 for the mesothelioma cell line ACC-MESO-1, and the reactivity of the SKM9-2 was examined through Western blot analysis. A full length protein (HEG1 full length) or a fragment (HEG1 3 kb, HEG1 2 kb, or HEG1 1 kb) of the human HEG1 was used. The full length human HEG1 protein, a protein having the amino acid sequence set forth in SEQ ID NO: 35, was obtained through inserting a base sequence set forth in SEQ ID NO: 34 into pFLAG-CMV1 (Sigma-Aldrich Japan K.K.) to obtain a plasmid, transforming the plasmid, and allowing the mesothelioma cell line to express the plasmid. Fragment HEG1 3 kb was obtained through inserting a fragment corresponding to a sequence from position 285, leucine, to position 1387, phenylalanine, of SEQ ID NO: 35 into pFLAG-CMV1 (Sigma-Aldrich Japan K.K.) in an in-frame manner, and allowing the mesothelioma cell line to express the resultant. HEG1 2 kb and HEG1 1 kb were obtained through allowing the mesothelioma cell line to express products similarly obtained from a fragment corresponding to a sequence from position 677, leucine, to position 1387, phenylalanine, of SEQ ID NO: 35 and a fragment corresponding to a sequence from position 992, valine, to position 1387, phenylalanine, of SEQ ID NO: 35, respectively. Each cell lysate was analyzed through Western blot with the SKM9-2 antibody.
# Further, the region in exon 7 of HEG1 was analyzed in detail. The amino acid sequence of a part of exon 7 of HEG1 was connected to the N-terminal side of a protein obtained by connecting a GPI anchor signal to human SLURP1 (SEQ ID NO: 42; hereinafter referred to as “SLURPgpi”) to produce a fusion protein, and the reactivity of the SKM9-2 was examined through Western blot analysis with the fusion protein. A signal sequence (SEQ ID NO: 43) was added to the N-terminal of the fusion protein before expression.
# Used fusion proteins of a partial sequence of exon 7 of HEG1 and SLURPgpi were as follows: • a fragment obtained by bonding a fragment from amino acid No. 783, aspartic acid, to amino acid No. 991, serine, to SLURPgpi (7.6); • a fragment obtained by bonding a fragment from amino acid No. 832, glutamine, to amino acid No. 991, serine, to SLURPgpi (7.7); • a fragment obtained by bonding a fragment from amino acid No. 886, glutamine, to amino acid No. 991, serine, to SLURPgpi (7.8); • a fragment obtained by bonding a fragment from amino acid No. 941, alanine, to amino acid No. 991, serine, to SLURPgpi (7.9); • a fragment obtained by bonding SEQ ID NO: 44 to SLURPgpi (7.61); • a fragment obtained by bonding SEQ ID NO: 45 to SLURPgpi (7.62); • a fragment obtained by bonding SEQ ID NO: 46 to SLURPgpi (7.63); • a fragment obtained by bonding SEQ ID NO: 47 to SLURPgpi (7.64); • a fragment obtained by bonding SEQ ID NO: 48 to SLURPgpi (7.623); • a fragment obtained by bonding SEQ ID NO: 49 to SLURPgpi (7.6231); • a fragment obtained by bonding SEQ ID NO: 50 to SLURPgpi (7.6232); • a fragment obtained by bonding SEQ ID NO: 51 to SLURPgpi (7.6241); and • a fragment obtained by bonding SEQ ID NO: 52 to SLURPgpi (7.6242).
row,Molecule,Binding to SKM9-2 antibody (positive/negative)
1,B1,positive
2,B2,positive
3,B3,positive
4,B4,positive
5,B5,negative

# Same assay, conditions: Western blot of cell lysate; listed as fragment 7.6
row,Molecule,Binding to SKM9-2 antibody (positive/negative)
1,B2,positive signal
